Experimental data published in paper PMC12421828.

These substances were tested against FLAG-14-3-3ε (pCAGG-FLAG 14-3-3ε of Figure 5, isoform not told) (assay: co-immunoprecipitation (anti-FLAG IP), immunoblot band quantification). Conditions: BSR cells co-transfected; immunoprecipitation at 24 h post-transfection; parent: est. 0.76; read off a plot.

Compared with HA2B* expressed from pCAGG-HA2B* S17A, HA2B* expressed from pCAGG-HA2B* S17D is lower in response (Elution / Input): 1.5 for the first, 1.4 for the second.

Going from HA2B* expressed from pCAGG-HA2B* S17E to HA2B* expressed from pCAGG-HA2B* S19A, the response (Elution / Input) falls from 1.7 to 1.1.

Going from HA2B* expressed from pCAGG-HA2B* S19D to HA2B* expressed from pCAGG-HA2B* S19E, the response (Elution / Input) falls from 1.9 to 0.76.
